According to publication PMC3846889, “Interacting Proteins on Human Spermatozoa: Adaptive Evolution of the Binding of Semenogelin I to EPPIN” (PLoS ONE, 2013):
Where a chain is given by its changes, count along the chain named. Numbers in names are those of the source.

T1: biotinylated SEMG1^214-42 (human, UniProt P04279-1 26-281, biotin (biotinylated as in ref. 23; sites not stated))
T1 construct: semenogelin I (SEMG1), human, residues G26-R281; The same construct as m2, biotinylated; also called bt-SEMG1; source: E. coli BL21 Star (DE3), purified under denaturing conditions (Ni-NTA), then biotinylated
T1 sequence (looked up): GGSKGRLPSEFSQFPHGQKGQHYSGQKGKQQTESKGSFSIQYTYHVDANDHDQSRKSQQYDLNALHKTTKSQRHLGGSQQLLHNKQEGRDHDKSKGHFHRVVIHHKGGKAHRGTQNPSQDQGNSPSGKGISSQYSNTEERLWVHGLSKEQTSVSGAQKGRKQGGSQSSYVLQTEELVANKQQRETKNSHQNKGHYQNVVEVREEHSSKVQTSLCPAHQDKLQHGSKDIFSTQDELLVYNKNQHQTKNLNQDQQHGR

B1: human recombinant SEMG1^214-42 (wild-type, residues G26-R281) (domain or fragment, UniProt P04279-1 26-281, looked up)
chain: T1 sequence (looked up)
notes: semenogelin I (SEMG1), human, residues G26-R281, cloned into pET100/D-TOPO; also called his-SEMG1; semenogelin I fragment G26-R281; source: E. coli BL21 Star (DE3), purified under denaturing conditions (Ni-NTA); not shown: His6, N-terminal, kept
B2: C239H-SEMG1^214-42 (domain or fragment, human, UniProt P04279-1 26-281, looked up)
chain: T1 sequence (looked up) with C214H
notes: semenogelin I (SEMG1), human, residues G26-R281 with C239H (His239 is the Gorilla residue); Point mutant of m2; source: E. coli BL21 Star (DE3), purified under denaturing conditions (Ni-NTA); not shown: His6, N-terminal, kept
B3: C239R-SEMG1^214-42 (domain or fragment, human, UniProt P04279-1 26-281, looked up)
chain: T1 sequence (looked up) with C214R
notes: semenogelin I (SEMG1), human, residues G26-R281 with C239R (Arg239 is the residue of Macaca mulatta and Papio anubis); Point mutant of m2; source: E. coli BL21 Star (DE3), purified under denaturing conditions (Ni-NTA); not shown: His6, N-terminal, kept
B4: recombinant SEMG1^74-42 (residues R165-R281) (domain or fragment, human, UniProt P04279-1 165-281, looked up)
chain: RLWVHGLSKEQTSVSGAQKGRKQGGSQSSYVLQTEELVANKQQRETKNSHQNKGHYQNVVEVREEHSSKVQTSLCPAHQDKLQHGSKDIFSTQDELLVYNKNQHQTKNLNQDQQHGR
notes: semenogelin I (SEMG1), human, residues R165-R281, in pET100/D-TOPO; source: E. coli BL21 Star (DE3), purified under denaturing conditions (Ni-NTA); not shown: His6, N-terminal, kept
B5: human recombinant EPPIN (residues P22-P133) (domain or fragment)
chain: not shown
notes: EPPIN, human, residues P22-P133, cloned into pET100/D-TOPO; also called tag-free EPPIN; source: E. coli Rosetta-Gami 2 (DE3), purified under denaturing conditions (Ni-NTA); 6X His-tag removed with enterokinase; not shown: His6, N-terminal, cleaved
B6: recombinant SEMG1^74-8 (residues R165-Q247) (domain or fragment, human, UniProt P04279-1 165-247, looked up)
chain: RLWVHGLSKEQTSVSGAQKGRKQGGSQSSYVLQTEELVANKQQRETKNSHQNKGHYQNVVEVREEHSSKVQTSLCPAHQDKLQ
notes: semenogelin I (SEMG1), human, residues R165-Q247, in pET100/D-TOPO; also called fragment 74-8; source: E. coli BL21 Star (DE3), purified under denaturing conditions (Ni-NTA); not shown: His6, N-terminal, kept
B7: C239D-SEMG1^214-42 (domain or fragment, human, UniProt P04279-1 26-281, looked up)
chain: T1 sequence (looked up) with C214D
notes: semenogelin I (SEMG1), human, residues G26-R281 with C239D; Point mutant of m2; source: E. coli BL21 Star (DE3), purified under denaturing conditions (Ni-NTA); not shown: His6, N-terminal, kept
B8: C239G-SEMG1^214-42 (domain or fragment, human, UniProt P04279-1 26-281, looked up)
chain: T1 sequence (looked up) with C214G
notes: semenogelin I (SEMG1), human, residues G26-R281 with C239G; Point mutant of m2; source: E. coli BL21 Star (DE3), purified under denaturing conditions (Ni-NTA); not shown: His6, N-terminal, kept
B9: C239S-SEMG1^214-42 (domain or fragment, human, UniProt P04279-1 26-281, looked up)
chain: T1 sequence (looked up) with C214S
notes: semenogelin I (SEMG1), human, residues G26-R281 with C239S; Point mutant of m2; source: E. coli BL21 Star (DE3), purified under denaturing conditions (Ni-NTA); not shown: His6, N-terminal, kept

Molecular target: B5
Assay: cell-based or functional assay
Conditions: not given

Going from B1 to B2, the “inhibition of human sperm motility (normalized iRMI by CASA), concentration-response, EC50” value falls from 1690 nM to 1080 nM (1.6-fold).

Compared with B3, B4 is 1.6-fold higher in “inhibition of human sperm motility (normalized iRMI by CASA), concentration-response, EC50” value: 2210 nM for the first, 3560 nM for the second.

QRETKNSHQNKGHYQNVVEVREEHSSKVQTSLCPAHQDKLQ (domain or fragment, human, UniProt P04279-1 207-247, looked up) [recombinant SEMG1^32-8 (residues Q207-Q247)] was tested, and the “inhibition of human sperm motility (normalized iRMI by CASA), concentration-response, EC50” value was 1750 nM.

Molecular target: T1, biotinylated SEMG1^214-42
Assay: AlphaScreen or HTRF; competition: EPPIN (10 nM) and bt-SEMG1^214-42 (1 nM) with increasing SEMG1 competitor (10 pM - 8 µM), 30 µl, 15 µg/ml beads; as in ref. 23
Conditions: both partners purified

B5: binds.

Molecular target: B5
Assay: as above
Conditions: both partners purified

First: B1
Second: B4
The IC50 of the first is 15-fold lower: 8.1 nM for the first, 124 nM for the second.

In the case of B6, the IC50 is reported as 385 nM.

Molecular target: B5
Assay: AlphaScreen or HTRF; direct binding, concentration-response: EPPIN (29 nM) on anti-EPPIN Q20E antibody (2 nM) and Protein A acceptor beads; His-tagged SEMG1 construct (0.04-7.5 µM) on Ni-NTA-chelate donor beads; 10 µg/ml beads, 30 µl; EC50 from the specific signal after 16 h
Conditions: both partners purified

Compared with B1, B7 is 4.2-fold higher in EC50: 23.1 nM for the first, 96.1 nM for the second.

Going from B8 to B2, the EC50 rises from 83.3 nM to 167 nM (2-fold).

B3 and B9 are within 1.5-fold of each other in EC50: 461 nM for the first, 564 nM for the second.
